{"source": "patent US20250109210A1", "about": "(ABSCI, published 2025)", "binders": {"B1": {"name": "MK-7240 (antibody, V domains shown)", "VH": "QVQLVQSGAEVKKPGASVKVSCKASGFDIQDTYMHWVKQRPGQGLEWMGRIDPASGHTKYDPKFQVRVTITRDTSTSTVYLELSSLRSEDTAVYYCARSGGLPDVWGQGTTVTVSS", "VL": "EIVLTQSPGTLSLSPGERATLSCRASSSVSYMYWYQQKPGQAPRPLIYATSNLASGIPDRFSGSGSGTDFTLTISRLEPEDFAVYYCQQWEGNPRTFGGGTKLEIK"}}, "key": {"[1]": {"molecular_target": "T1, TL1A (UniProt O95150 72-251, limits assumed)", "T1 construct": "also called TNFSF15", "T1 sequence (looked up)": "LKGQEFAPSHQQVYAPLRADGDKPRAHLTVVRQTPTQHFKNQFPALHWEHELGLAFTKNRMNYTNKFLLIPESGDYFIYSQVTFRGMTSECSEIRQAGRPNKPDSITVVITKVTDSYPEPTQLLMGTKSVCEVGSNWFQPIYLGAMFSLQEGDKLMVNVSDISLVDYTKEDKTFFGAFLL", "experiment": "selectivity ELISA: antibody pre-incubated with TL1A, inhibition of TL1A binding to plate-coated DR3"}, "[2]": {"molecular_target": "T1, TL1A", "experiment": "selectivity ELISA: antibody pre-incubated with TL1A, inhibition of TL1A binding to plate-coated DcR3"}}, "data": [{"binder": "B1", "values": [{"measurement": "IC50", "setting": "[1]", "value": 6.3, "unit": "µg/mL"}, {"measurement": "IC50", "setting": "[2]", "value": 3.6, "unit": "µg/mL"}]}]}
